These results are taken from the supplement of paper PMC11246515.

The series in a line: total protein half-life in vivo (active degradation + dilution); higher = more stable protein.
The mark [1] stands for this setting: wild type E. coli NCM3722, growth: C-lim chemostat, doubling time 3 h.
Setting [2] is: wild type E. coli NCM3722, growth: C-lim chemostat, doubling time 12 h.
Where [3] appears, read: wild type E. coli NCM3722, growth: P-lim chemostat, doubling time 6 h.
Setting [4] is: wild type E. coli NCM3722, growth: P-lim chemostat, doubling time 12 h.
Setting [5] is: wild type E. coli NCM3722, growth: C-lim chemostat, doubling time 6 h.
The mark [6] stands for this setting: E. coli NCM3722 delta-clpP delta-lon delta-hslV, growth: N-lim chemostat, doubling time 6 h.
[7] abbreviates: E. coli NCM3722 delta-clpP, growth: N-lim chemostat, doubling time 6 h.
Setting [8] is: E. coli NCM3722 delta-lon, growth: N-lim chemostat, doubling time 6 h.
The mark [9] stands for this setting: E. coli NCM3722 delta-smpB, growth: N-lim chemostat, doubling time 6 h.
Where [10] appears, read: wild type E. coli NCM3722, growth: N-lim chemostat, doubling time 6 h.
Where [11] appears, read: wild type E. coli NCM3722, growth: N-lim chemostat, doubling time 12 h.
The mark [12] stands for this setting: E. coli NCM3722 delta-hslV, growth: N-lim chemostat, doubling time 6 h.

± gives the standard deviation of the averaged measurements.

For the sequence “MYTQTLYELSQEAERLLQLSRQQLQLLEKMPLSVPGDDAPQLALPWSQPNIAERHAMLNNELRKISRLEMVLAIVGTMKAGKSTTINAIVGTEVLPNRNRPMTALPTLIRHTPGQKEPVLHFSHVAPIDCLIQQLQQRLRDCDIKHLTDVLEIDKDMRALMQRIENGVAFEKYYLGAQPIFHCLKSLNDLVRLAKALDVDFPFSAYAAIEHIPVIEVEFVHLAGLESYPGQLTLLDTPGPNEAGQPHLQKMLNQQLARASAVLAVLDYTQLKSISDEEVREAILAVGQSVPLYVLVNKFDQQDRNSDDADQVRALISGTLMKGCITPQQIFPVSSMWGYLANRARYELANNGKLPPPEQQRWVEDFAHAALGRRWRHADLADLEHIRHAADQLWEDSLFAQPIQALLHAAYANASLYALRSAAHKLLNYAQQAREYLDFRAHGLNVACEQLRQNIHQIEESLQLLQLNQAQVSGEIKHEIELALTSANHFLRQQQDALKVQLAALFQDDSEPLSEIRTRCETLLQTAQNTISRDFTLRFAELESTLCRVLTDVIRPIEQQVKMELSESGFRPGFHFPVFHGVVPHFNTRQLFSEVISRQEATDEQSTRLGVVRETFSRWLNQPDWGRGNEKSPTETVDYSVLQRALSAEVDLYCQQMAKVLAEQVDESVTAGMNTFFAEFASCLTELQTRLRESLALRQQNESVVRLMQQQLQQTVMTHGWIYTDAQLLRDDIQTLFTAERY [P0DM85]”, the “total protein half-life in vivo” value is 2.44 ± 0.21 h under setting [1], 5.52 ± 1.4 h under setting [2], 3.43 ± 0.63 h under setting [3] and 6.3 ± 0.69 h under setting [4].
Take “MLQIIRGKLVIFLITLCLFVVYLGFDNNSNSDIVFYGHKTPKSVEIYLSEKNIIYKIINDQKISRGNGHFISIMVNNYRTHCGVVDINLNFFNDILYSVRLKNISKLENMEFCATKQRVYFSDKNKKASYKIINYGDYYDVDYYDNNLKNEVFDWIGKWS”: the “total protein half-life in vivo” value by setting is: under setting [1], 2.67 h; under setting [5], 4.29 h; under setting [3], 2.67 h; under setting [4], 7 h.
In the case of “MKTKVILSQQMASAIIAAGQEEAQKNNWSVSIAVADDGGHLLALSRMDDCAPIAAYISQEKARTAALGRRETKGYEEMVNNGRTAFVTAPLLTSLEGGVPVVVDGQIIGAVGVSGLTGAQDAQVAKAAAAVLAK [P0AEQ1]”, the “total protein half-life in vivo” value runs as follows: under setting [6], 4.93 ± 0.46 h; under setting [7], 4.12 ± 0.23 h; under setting [8], 4.27 ± 0.26 h; under setting [9], 4.21 ± 0.32 h; under setting [1], 3.04 ± 0.057 h; under setting [5], 5.267 ± 0.02 h. The “total protein half-life in vivo” value by setting is: under setting [2], 9.62 ± 0.24 h; under setting [10], 4.29 ± 0.12 h; under setting [11], 5.98 h; under setting [3], 5.43 ± 0.44 h; under setting [4], 11.6 ± 0.93 h.
Turning to “MNKFLFAAALIVSGLLVGCNQLTQYTITEQEINQSLAKHNNFSKDIGLPGVADAHIVLTNLTSQIGREEPNKVTLTGDANLDMNSLFGSQKATMKLKLKALPVFDKEKGAIFLKEMEVVDATVQPEKMQTVMQTLLPYLNQALRNYFNQQPAYVLREDGSQGEAMAKKLAKGIEVKPGEIVIPFTD [P0AB26]”, the “total protein half-life in vivo” value runs as follows: under setting [12], 6.63 ± 0.84 h; under setting [8], 6.72 ± 0.38 h; under setting [9], 6.38 ± 0.15 h; under setting [1], 3.55 ± 0.36 h; under setting [5], 5.37 ± 0.43 h; under setting [2], 11.9 ± 1.5 h. Further, the “total protein half-life in vivo” value runs as follows: under setting [10], 5.75 ± 0.34 h; under setting [11], 13.4 ± 0.43 h; under setting [3], 6.01 ± 0.25 h; under setting [4], 12.36 ± 0.048 h.
“MRAKLLGIVLTTPIAISSFASTETLSFTPDNINADISLGTLSGKTKERVYLAEEGGRKVSQLDWKFNNAAIIKGAINWDLMPQISIGAAGWTTLGSRGGNMVDQDWMDSSNPGTWTDESRHPDTQLNYANEFDLNIKGWLLNEPNYRLGLMAGYQESRYSFTARGGSYIYSSEEGFRDDIGSFPNGERAIGYKQRFKMPYIGLTGSYRYEDFELGGTFKYSGWVESSDNDEHYDPGKRITYRSKVKDQNYYSVAVNAGYYVTPNAKVYVEGAWNRVTNKKGNTSLYDHNNNTSDYSKNGAGIENYNFITTAGLKYTF”: the “total protein half-life in vivo” value turned out to be 6.57 ± 0.46 h under setting [7]; 6.305 ± 0.013 h under setting [12]; 6.712 ± 0.042 h under setting [8]; 5.81 ± 0.35 h under setting [9]; 3.21 ± 0.091 h under setting [1]; 6.17 ± 0.45 h under setting [5]. Besides, the “total protein half-life in vivo” value under setting [2] came out at 11.5 ± 0.18 h; the “total protein half-life in vivo” value under setting [10] amounted to 6.05 ± 0.22 h; the “total protein half-life in vivo” value under setting [11] amounted to 12.2 ± 2.6 h; the “total protein half-life in vivo” value under setting [3] came out at 6.51 ± 0.55 h; the “total protein half-life in vivo” value under setting [4] stood at 13.498 ± 0.0072 h.
“MRKFIFVLLTLLLVSPFSFAMKGIIWQPQNRDSQVTDTQWQGLMSQLRLQGFDTLVLQWTRYGDAFTQPEQRTLLFKRAAAAQQAGLKLIVGLNADPEFFMHQKQSSAALESYLNRLLAADLQQARLWSAAPGITPDGWYISAEIDDLNWRSEAARQPLLTWLNNAQRLISDVSAKPVYISSFFAGNMSPDGYRQLLEHVKATGVNVWVQDGSGVDKLTAEQRERYLQASADCQSPAPASGVVYELFVAGKGKTFTAKPKPDAEIASLLAKRSSCGKDTLYFSLRYLPVAHGILEY”: the “total protein half-life in vivo” value by setting is: under setting [6], 5.13 ± 0.23 h; under setting [7], 6.05 ± 0.4 h; under setting [8], 6.25 ± 0.24 h; under setting [9], 5.08 ± 1.3 h; under setting [5], 6.17 ± 0.52 h; under setting [10], 5.78 ± 0.16 h. Further, the “total protein half-life in vivo” value under setting [11] came out at 11.8 ± 1.6 h, the “total protein half-life in vivo” value under setting [3] was found to be 5.96 ± 0.13 h and the “total protein half-life in vivo” value under setting [4] was found to be 12.5 ± 0.58 h.
